What was measured:
[1] = biological target: T1, HCII peptide (SEQ ID NO:24), modeled on the tyrosine sulfation site in heparin cofactor II
T1 chain: EGEEDDDYLDLEKIFC

[2] = biological target: T2, C4α peptide (SEQ ID NO:23), modeled on tyrosine sulfation sites in the α chain of the fourth component of complement
T2 chain: EANEDYEDYEYDELPAC

B1: Human TPST-1-HPC4 fusion protein (protein)
chain: MEDQVDPRLIDGKDPVGKLKQNLLLACLVISSVTVFYLGQHAMECHHRIEERSQPVKLESTRTTVRTGLDLKANKTFAYHKDMPLIFIGGVPRSGTTLMRAMLDAHPDIRCGEETRVIPRILALKQMWSRSSKEKIRLDEAGVTDEVLDSAMQAFLLEIIVKHGEPAPYLCNKDPFALKSLTYLSRLFPNAKFLLMVRDGRASVHSMISRKVTIAGFDLNSYRDCLTKWNRAIETMYNQCMEVGYKKCMLVHYEQLVLHPERWMRTLLKFLQIPWNHSVLHHEEMIGKAGGVSLSKVERSTDQVIKPVNVGALSKWVGKIPPDVLQDMAVIAPMLAKLGYDPYANPPNYGKPDPKIIENTRRVYKGEFQLPDFLKEKPQTEQVE
[1]
  specific activity of TPST-1 extracts relative to TPST-2 extracts assayed in parallel: 21-fold higher using the HCII peptide as substrate
[2]
  specific activity of TPST-1 extracts relative to TPST-2 extracts assayed in parallel: 9-fold higher using the C4α peptide
